Results: patent publication US20190218261A1, “TARGETED ENHANCED DNA DEMETHYLATION” (The Jackson Laboratory, priority 2016, published 2019)

System: hMLH1 expression (methylation-silenced hMLH1 promoter) in HEK293T cells
Assay: hMLH1 mRNA levels by TaqMan qRT-PCR in transfected HEK293T cells
Assay type: cell-based, human
Details: for stimulation of TET1(CD) mediated hMLH1 activation by GADD45A PUFc fusions: co-expressed with PUFa-TET1(CD), gRNAs-PBSac
Method: To test the system, HEK293T cells were transfected with Casilio-ME components including Ct or Nt-fusion TET1-effector and a combination of 3 or 2 sgRNAs. Relative levels of hMLH1 mRNA were determined in TaqMan assays by using RNA extracted from cells 60 hours post-transfection and GAPDH as endogenous control for normalization of qRT-PCR measurements.
Cell culture and transfection. HEK293T cells were cultivated in Dulbecco's modified Eagle's medium (DMEM)(Sigma) with 10% fetal bovine serum (FBS)(Lonza), 4% Glutamax (Gibco), 1% Sodium Pyruvate (Gibco) and penicillin-streptomycin (Gibco) in an incubator set to 37° C. and 5% CO2. When indicated cells were treated with 2.5 μM or 5 μM 5-Azacytidine (sigma) as indicated with a daily change of medium containing freshly diluted drug. Cells were seeded into 12-well plates at 150,000 cells per well the day before being transfected with 100 ng of dCas9 construct, 100 ng of modified sgRNA construct and 200 ng of PUF-fusion with Attractene transfection reagent according to manufacturer's instructions (Qiagen). In dCas9-direct fusion experiments, cells were transfected with 200 ng dCas9-fusion constructs and 200 ng of modified sgRNA constructs. Transfected cells were harvested 60 hours after transfection, or otherwise indicated, and cell pellets were used for extractions of RNA, genomic DNA and protein.
Quantitative RT-PCR analysis. Cells were harvested, washed with Dulbecco's phosphate-buffered saline (dPBS), centrifuged at 125×g for 5 min and then the flash-frozen pellets were stored at −80° C. RNA was extracted using RNeasy Plus Mini Kit according to the manufacturer's instructions (Qiagen). cDNA libraries were made using Applied Biosystems High Capacity RNA-to-cDNA kit with 200 ng to 1 μg of RNA. TaqMan gene expression assays (Applied Biosystems) were designed using GAPDH (Hs03929097, VIC) as endogenous control and hMLH1 (Hs00179866, FAM) as target. TaqMan Universal Master Mix II, with UNG (Applied Biosystems) was used for Quantitative PCR (qPCR), with 2 μl of diluted cDNA used for each reaction. Activation was analyzed with the Applied Biosystems ViiA7 instrument. Gene expression levels were calculated by “delta delta Ct” algorithm and normalized to control samples.
HEK293T cells were cultivated in Dulbecco's modified Eagle's medium (DMEM) (Sigma) with 10% fetal bovine serum (FBS) (Lonza), 4% Glutamax (Gibco), 1% Sodium Pyruvate (Gibco) and penicillin-streptomycin (Gibco) in an incubator set to 37° C. and 5% CO2. Cells were seeded into 12-well plates at 150,000 cells per well the day before being transfected with 100 ng of dCas9 construct, 100 ng of modified sgRNA construct and 200 ng of PUF-fusion with Attractene transfection reagent according to manufacturer's instructions (Qiagen). Transfected cells were harvested 3 days after transfection, or otherwise indicated, and cell pellets were used for RNA extractions.
Cells were harvested, washed with Dulbecco's phosphate-buffered saline (dPBS), centrifuged at 125×g for 5 min and then the flash-frozen pellets were stored at −80° C. RNA was extracted using RNeasy Plus Mini Kit according to the manufacturer's instructions (Qiagen). cDNA libraries were made using Applied Biosystems High Capacity RNA-to-cDNA kit with 200 ng to 2 μg of RNA. TaqMan gene expression assays (Applied Biosystems) were designed using GAPDH (Hs03929097, VIC) as endogenous control and hMLH1 (Hs00179866, FAM) as target. TaqMan Universal Master Mix II, with UNG (Applied Biosystems) was used for Quantitative PCR (qPCR), with 2 μl of diluted cDNA used for each reaction. Activation was analyzed with the Applied Biosystems ViiA7 instrument. Gene expression levels were calculated by “delta delta Ct” algorithm and normalized to control samples.

B1: PUFa-GADD45A-TET1(CD): GADD45A between PUFa and TET1(CD); SEQ ID NO:105 (protein)
chain: MIDGGGGSDPKKKRKVDPKKKRKVDPKKKRKVGSTGSRNDGGGGSGGGGSGGGGSGRAGILPPKKKRKVSRGRSRLLEDFRNNRYPNLQLREIAGHIMEFSQDQHGSRFIQLKLERATPAERQLVFNEILQAAYQLMVDVFGNYVIQKFFEFGSLEQKLALAERIRGHVLSLALQMYGSRVIEKALEFIPSDQQNEMVRELDGHVLKCVKDQNGNHVVQKCIECVQPQSLQFIIDAFKGQVFALSTHPYGCRVIQRILEHCLPDQTLPILEELHQHTEQLVQDQYGNYVIQHVLEHGRPEDKSKIVAEIRGNVLVLSQHKFASNVVEKCVTHASRTERAVLIDEVCTMNDGPHSALYTMMKDQYANYVVQKMIDVAEPGQRKIVMHKIRPHIATLRKYTYGKHILAKLEKYYMKNGVDLGDPKKKRKVDPKKKRKVGGRGGGSGGGSGGGSGGGSGGGSGGGSLTLEEFSAGEQKTERMDKVGDALEEVLSKALSQRTITVGVYEAAKLLNVDPDNVVLCLLAADEDDDRDVALQIHFTLIQAFCCENDINILRVSNPGRLAELLLLETDAGPAASEGAEQPPDLHCVLVTNPHSSQWKDPALSQLICFCRESRYMDQWVPVINLPERSRGRGGGGSGGGGSGGGGSGPAELPTCSCLDRVIQKDKGPYYTHLGAGPSVAAVREIMENRYGQKGNAIRIEIVVYTGKEGKSSHGCPIAKWVLRRSSDEEKVLCLVRQRTGHHCPTAVMVVLIMVWDGIPLPMADRLYTELTENLKSYNGHPTDRRCTLNENRTCTCQGIDPETCGASFSFGCSWSMYFNGCKFGRSPSPRRFRIDPSSPLHEKNLEDNLQSLATRLAPIYKQYAPVAYQNQVEYENVARECRLGSKEGRPFSGVTACLDFCAHPHRDIHNMNNGSTVVCTLTREDNRSLGVIPQDEQLHVLPLYKLSDTDEFGSKEGMEAKIKSGAIEVLAPRRKKRTCFTQPVPRSGKKRAAMMTEVLAHKIRAVEKKPIPRIKRKNNSTTTNNSKPSSLPTLGSNTETVQPEVKSETEPHFILKSSDNTKTYSLMPSAPHPVKEASPGFSWSPKTASATPAPLKNDATASCGFSERSSTPHCTMPSGRLSGANAAAADGPGISQLGEVAPLPTLSAPVMEPLINSEPSTGVTEPLTPHQPNHQPSFLTSPQDLASSPMEEDEQHSEADEPPSDEPLSDDPLSPAEEKLPHIDEYWSDSEHIFLDANIGGVAIAPAHGSVLIECARRELHATTPVEHPNRNHPTRLSLVFYQHKNLNKPQHGFELNKIKFEAKEAKNKKMKASEQKDQAANEGPEQSSEVNELNQIPSHKALTLTHDNVVTVSPYALTHVAGPYNHWVID
- enhancement of hMLH1 expression relative to PUFa-TET1(CD) alone (GADD45A two-in-one effectors, HEK293T, TaqMan): 4 fold

B2: GADD45A-PUFc: SEQ ID NO:107 (protein)
chain: MTLEEFSAGEQKTERMDKVGDALEEVLSKALSQRTITVGVYEAAKLLNVDPDNVVLCLLAADEDDDRDVALQIHFTLIQAFCCENDINILRVSNPGRLAELLLLETDAGPAASEGAEQPPDLHCVLVTNPHSSQWKDPALSQLICFCRESRYMDQWVPVINLPERSRYPYDVPDYAIDGGGGSDPKKKRKVDPKKKRKVDPKKKRKVGSTGSRNDGGGGSGGGGSGGGGSGRAGILPPKKKRKVSRGRSRLLEDFRNNRYPNLQLREIAGHIMEFSQDQHGSRFIQLKLERATPAERQLVFNEILQAAYQLMVDVFGNYVIQKFFEFGSLEQKLALAERIRGHVLSLALQMYGSRVIEKALEFIPSDQQNEMVRELDGHVLKCVKDQNGNHVVQKCIECVQPQSLQFIIDAFKGQVFALSTHPYGCRVIQRILEHCLPDQTLPILEELHQHTEQLVQDQYGSYVIEHVLEHGRPEDKSKIVAEIRGNVLVLSQHKFANNVVQKCVTHASRTERAVLIDEVCTMNDGPHSALYTMMKDQYANYVVQKMIDVAEPGQRKIVMHKIRPHIATLRKYTYGKHILAKLEKYYMKNGVDLGDPKKKRKVDPKKKRKVGGRGGGGSGGGGSGGGGSGPA
- stimulation of TET1(CD) mediated hMLH1 activation by GADD45A PUFc fusions: higher activity compared to PUFc-GADD45A fusions

B3: TET1(CD)(H1671Y D1673A)-PUFa: catalytically dead TET1(CD) PUFa fusion; SEQ ID NO:110 (protein)
chain: MIDGGGGSDPKKKRKVDPKKKRKVDPKKKRKVGSTGSRNDGGGGSGGGGSGGGGSGRAGILPPKKKRKVSRGRSRLLEDFRNNRYPNLQLREIAGHIMEFSQDQHGSRFIQLKLERATPAERQLVFNEILQAAYQLMVDVFGNYVIQKFFEFGSLEQKLALAERIRGHVLSLALQMYGSRVIEKALEFIPSDQQNEMVRELDGHVLKCVKDQNGNHVVQKCIECVQPQSLQFIIDAFKGQVFALSTHPYGCRVIQRILEHCLPDQTLPILEELHQHTEQLVQDQYGNYVIQHVLEHGRPEDKSKIVAEIRGNVLVLSQHKFASNVVEKCVTHASRTERAVLIDEVCTMNDGPHSALYTMMKDQYANYVVQKMIDVAEPGQRKIVMHKIRPHIATLRKYTYGKHILAKLEKYYMKNGVDLGDPKKKRKVDPKKKRKVGGRGGGGSGGGGSGGGGSGPAELPTCSCLDRVIQKDKGPYYTHLGAGPSVAAVREIMENRYGQKGNAIRIEIVVYTGKEGKSSHGCPIAKWVLRRSSDEEKVLCLVRQRTGHHCPTAVMVVLIMVWDGIPLPMADRLYTELTENLKSYNGHPTDRRCTLNENRTCTCQGIDPETCGASFSFGCSWSMYFNGCKFGRSPSPRRFRIDPSSPLHEKNLEDNLQSLATRLAPIYKQYAPVAYQNQVEYENVARECRLGSKEGRPFSGVTACLDFCAHPYRAIHNMNNGSTVVCTLTREDNRSLGVIPQDEQLHVLPLYKLSDTDEFGSKEGMEAKIKSGAIEVLAPRRKKRTCFTQPVPRSGKKRAAMMTEVLAHKIRAVEKKPIPRIKRKNNSTTTNNSKPSSLPTLGSNTETVQPEVKSETEPHFILKSSDNTKTYSLMPSAPHPVKEASPGFSWSPKTASATPAPLKNDATASCGFSERSSTPHCTMPSGRLSGANAAAADGPGISQLGEVAPLPTLSAPVMEPLINSEPSTGVTEPLTPHQPNHQPSFLTSPQDLASSPMEEDEQHSEADEPPSDEPLSDDPLSPAEEKLPHIDEYWSDSEHIFLDANIGGVAIAPAHGSVLIECARRELHATTPVEHPNRNHPTRLSLVFYQHKNLNKPQHGFELNKIKFEAKEAKNKKMKASEQKDQAANEGPEQSSEVNELNQIPSHKALTLTHDNVVTVSPYALTHVAGPYNHWVID
- hMLH1 expression without TET1 catalytic activity (GADD45A expressed with catalytically dead TET1(CD) fusion or without TET1(CD) fusion): no hMLH1 expression was detected

B4: PUFc-GADD45A: SEQ ID NO:106 (protein)
chain: MIDGGGGSDPKKKRKVDPKKKRKVDPKKKRKVGSTGSRNDGGGGSGGGGSGGGGSGRAGILPPKKKRKVSRGRSRLLEDFRNNRYPNLQLREIAGHIMEFSQDQHGSRFIQLKLERATPAERQLVFNEILQAAYQLMVDVFGNYVIQKFFEFGSLEQKLALAERIRGHVLSLALQMYGSRVIEKALEFIPSDQQNEMVRELDGHVLKCVKDQNGNHVVQKCIECVQPQSLQFIIDAFKGQVFALSTHPYGCRVIQRILEHCLPDQTLPILEELHQHTEQLVQDQYGSYVIEHVLEHGRPEDKSKIVAEIRGNVLVLSQHKFANNVVQKCVTHASRTERAVLIDEVCTMNDGPHSALYTMMKDQYANYVVQKMIDVAEPGQRKIVMHKIRPHIATLRKYTYGKHILAKLEKYYMKNGVDLGDPKKKRKVDPKKKRKVGGRGGGGSGGGGSGGGGSGPALTLEEFSAGEQKTERMDKVGDALEEVLSKALSQRTITVGVYEAAKLLNVDPDNVVLCLLAADEDDDRDVALQIHFTLIQAFCCENDINILRVSNPGRLAELLLLETDAGPAASEGAEQPPDLHCVLVTNPHSSQWKDPALSQLICFCRESRYMDQWVPVINLPERSRYPYDVPDYA
- stimulation of TET1(CD) mediated hMLH1 activation by GADD45A PUFc fusions: significant stimulation of the TET1(CD) mediated hMLH1 activation
